Target: …-loaded H-2D^d (mouse | )
Experiment: SPR

B1: Ly49A EC (entire extracellular domain of Ly49A, residues 67-262) (receptor, mouse (C57BL/6), UniProt P20937 67-262, looked up)
chain: KIFQYDQQKNCEEFLNHHNNCSNMQSDINLKDEMLKNKSIECDLLESLNRDQNRLYNKTKTVLDSLQHTGRGDKVYWFCYGMKCYYFVMDRKTWSGCKQACQSSSLSLLKIDDEDELKFLQLVVPSDSCWVGLSYDNKKKDWAWIDNRPSKLALNTGKYNIRDGGCMLLSKTRLDNGNCDQVFICICGKRLDKFPH
modifications: biotin (biotinylated Ly49A EC, captured on streptavidin)
Kd: 2050 ± 70 nM
koff: 0.00338 s⁻¹
kon: 1650 M⁻¹ s⁻¹

Source: paper PMC3913127 (Nature immunology, 2012)
